Data on twelve molecules can be found in article PMC9357085, “Three pairs of surrogate redox partners comparison for Class I cytochrome P450 enzyme activity reconstitution” (Communications Biology, 2022).

The target in experiment [1] is T1, P450sca-2 (CYP105A3) (Streptomyces carbophilus, UniProt Q59831).
T1 construct: His-tagged, expressed in E. coli, Ni-NTA purified
T1 sequence (Q59831 2-410): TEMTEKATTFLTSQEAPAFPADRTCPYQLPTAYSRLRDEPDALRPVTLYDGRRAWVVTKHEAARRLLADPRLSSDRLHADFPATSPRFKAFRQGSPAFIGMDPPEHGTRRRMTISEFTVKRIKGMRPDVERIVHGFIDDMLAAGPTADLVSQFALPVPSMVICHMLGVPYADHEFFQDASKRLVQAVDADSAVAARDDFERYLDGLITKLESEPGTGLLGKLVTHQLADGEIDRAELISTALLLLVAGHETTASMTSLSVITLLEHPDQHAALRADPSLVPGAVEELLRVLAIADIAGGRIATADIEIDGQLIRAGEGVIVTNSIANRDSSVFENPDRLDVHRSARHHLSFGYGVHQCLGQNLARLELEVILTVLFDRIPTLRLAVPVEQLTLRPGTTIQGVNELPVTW
The experiment is described as follows: HPLC/HRMS of products, reconstituted system. Format: biochemical. To be noted: SelFdx1499/SelFdR0978 as redox partners (1:10:5), NADP+ with regeneration, pH 7.4, 30 °C, 2 h.

The target in experiment [2] is T2, PdR (putidaredoxin reductase) (Pseudomonas putida, UniProt P16640).
T2 construct: gene camA; His-tagged, expressed in E. coli, Ni-NTA purified
T2 sequence (P16640 1-422): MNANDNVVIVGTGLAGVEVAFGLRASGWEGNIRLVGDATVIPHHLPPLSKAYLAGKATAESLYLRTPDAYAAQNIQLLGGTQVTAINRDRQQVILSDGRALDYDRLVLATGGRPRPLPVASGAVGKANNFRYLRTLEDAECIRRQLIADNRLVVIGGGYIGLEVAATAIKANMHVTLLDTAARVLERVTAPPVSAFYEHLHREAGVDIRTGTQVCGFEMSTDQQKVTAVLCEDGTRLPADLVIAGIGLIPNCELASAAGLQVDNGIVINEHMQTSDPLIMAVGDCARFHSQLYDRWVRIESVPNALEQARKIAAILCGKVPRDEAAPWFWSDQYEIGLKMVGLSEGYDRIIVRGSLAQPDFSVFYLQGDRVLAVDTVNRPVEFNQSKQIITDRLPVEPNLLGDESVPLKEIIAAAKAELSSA
The experiment is described as follows: DCIP reduction, absorbance at […] nm. The experiment is classed as biochemical. Particulars: 30 °C.

Experiment [3] concerns the target T3, AdR (adrenodoxin reductase) (Bos taurus, UniProt P08165).
T3 construct: gene FDXR; C-terminal His-tag, expressed in E. coli; template plasmid pBAR-bAdR
T3 sequence (P08165 33-492): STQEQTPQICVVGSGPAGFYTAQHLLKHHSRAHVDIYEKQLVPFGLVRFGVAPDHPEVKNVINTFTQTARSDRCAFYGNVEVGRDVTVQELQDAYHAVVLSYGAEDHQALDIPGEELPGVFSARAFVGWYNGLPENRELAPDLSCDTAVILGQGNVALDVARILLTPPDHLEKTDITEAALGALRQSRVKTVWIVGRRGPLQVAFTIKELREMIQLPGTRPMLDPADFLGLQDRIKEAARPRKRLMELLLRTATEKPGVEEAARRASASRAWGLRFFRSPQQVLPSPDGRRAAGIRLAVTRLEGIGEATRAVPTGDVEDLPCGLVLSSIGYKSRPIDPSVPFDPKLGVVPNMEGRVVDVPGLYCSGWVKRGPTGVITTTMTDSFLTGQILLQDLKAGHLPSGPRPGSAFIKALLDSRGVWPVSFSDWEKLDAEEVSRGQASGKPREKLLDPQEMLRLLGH
The experiment is described as follows: DCIP reduction, absorbance at […] nm. Particulars: 30 °C. The experiment is classed as biochemical.

Experiment [4] deals with T4, SelFdR0978 (Synechococcus elongatus, UniProt Q31PL1).
T4 construct: gene Synpcc7942_0978
T4 sequence (Q31PL1 1-403): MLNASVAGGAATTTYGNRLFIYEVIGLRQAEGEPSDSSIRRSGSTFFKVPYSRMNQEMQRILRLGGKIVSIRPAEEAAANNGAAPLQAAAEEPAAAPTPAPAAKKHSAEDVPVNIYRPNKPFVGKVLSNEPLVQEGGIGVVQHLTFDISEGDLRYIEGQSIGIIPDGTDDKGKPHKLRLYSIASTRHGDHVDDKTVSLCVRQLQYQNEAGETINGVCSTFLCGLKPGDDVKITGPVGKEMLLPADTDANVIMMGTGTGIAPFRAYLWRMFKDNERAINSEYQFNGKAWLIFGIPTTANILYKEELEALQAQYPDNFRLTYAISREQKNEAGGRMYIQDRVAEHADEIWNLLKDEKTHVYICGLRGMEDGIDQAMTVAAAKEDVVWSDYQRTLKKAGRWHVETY
Kind of experiment: DCIP reduction, absorbance at […] nm. The experiment is classed as biochemical. Particulars: 30 °C.

Experiment [5] deals with T4, SelFdR0978. The experiment is described as follows: FAD released by guanidinium chloride, absorbance at […] nm. Format: binding. To be noted: FAD-bound flavoprotein as purified.
Experiment [6] has as its target T5, EpoK (CYP167A1) (Sorangium cellulosum, UniProt Q9KIZ4).
T5 construct: His-tagged, expressed in E. coli (general P450 statement)
Kind of experiment: conversion assay, reconstituted system. Format: biochemical. To be noted: SelFdx1499/SelFdR0978 as redox partners.

Experiment [7] addresses T6, Bovine adrenodoxin reductase (bovine) (UniProt P08165).
T6 sequence: T3 sequence (P08165 33-492)

In experiment [8] the target is T7, putidaredoxin reductase from Pseudomonas putida (Pseudomonas putida) (UniProt P16640).
T7 sequence: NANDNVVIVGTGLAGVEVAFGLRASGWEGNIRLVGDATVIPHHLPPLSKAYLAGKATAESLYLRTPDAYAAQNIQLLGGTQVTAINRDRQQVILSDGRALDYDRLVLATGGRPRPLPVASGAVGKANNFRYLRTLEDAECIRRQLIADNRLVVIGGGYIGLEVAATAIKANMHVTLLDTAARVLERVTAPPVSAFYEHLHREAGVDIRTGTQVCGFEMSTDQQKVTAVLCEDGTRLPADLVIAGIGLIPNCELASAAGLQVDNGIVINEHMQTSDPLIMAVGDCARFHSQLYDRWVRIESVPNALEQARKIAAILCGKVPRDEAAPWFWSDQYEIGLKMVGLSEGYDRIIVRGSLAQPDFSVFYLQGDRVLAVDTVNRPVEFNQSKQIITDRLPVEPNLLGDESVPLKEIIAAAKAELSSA

For experiment [9], the target named is T6, Bovine adrenodoxin reductase (bovine). This is another data set of the same source.
Experiment [10] has as its target plastidic-type ferredoxin reductase SelFdR0978 from Synechococcus elongatus PCC 7942 (Synechococcus elongatus PCC 7942).
Experiment [11] shares this target. The source holds these as a separate data set.
For experiment [12], the target named is T7, putidaredoxin reductase from Pseudomonas putida (Pseudomonas putida). The source holds these as a separate data set.
Where [13] appears, read: electron acceptor, 1 mM NADPH or NADH.
Where [14] appears, read: electron donor at 1 mM, DCIP as acceptor.

Numbering of substitutions follows the chain as printed.

T5 sequence (Q9KIZ4 whole entry): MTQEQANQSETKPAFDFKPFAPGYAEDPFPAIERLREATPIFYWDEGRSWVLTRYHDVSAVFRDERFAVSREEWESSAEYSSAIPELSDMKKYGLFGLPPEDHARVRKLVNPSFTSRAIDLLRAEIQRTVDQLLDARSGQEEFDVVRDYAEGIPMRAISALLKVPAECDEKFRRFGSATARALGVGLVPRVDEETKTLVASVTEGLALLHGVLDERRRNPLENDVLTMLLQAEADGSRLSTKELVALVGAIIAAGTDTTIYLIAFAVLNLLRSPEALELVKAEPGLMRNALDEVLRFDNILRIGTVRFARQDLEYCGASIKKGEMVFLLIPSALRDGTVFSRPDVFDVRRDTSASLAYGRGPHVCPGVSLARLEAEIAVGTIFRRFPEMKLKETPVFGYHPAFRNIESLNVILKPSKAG

Turning to `CC[C@H](C)C(=O)O[C@H]1CCC=C2C=C[C@H](C)[C@H](CC[C@@H](O)C[C@@H](O)CC(=O)O)[C@H]21`, in experiment [1], the “HPLC/HRMS of products, reconstituted system” value was “P450sca-2 produced pravastatin as the main product in all positive reactions”.

On to `O=C1C(Cl)=CC(=Nc2ccc(O)cc2)C=C1Cl` [DCIP], for which the “DCIP reduction, absorbance at 600 nm” value in [2] (setting [13]) is “SelFdR0978 was more efficient in DCIP reduction than both AdR and PdR”; in [3] (setting [13]), “SelFdR0978 was more efficient in DCIP reduction than both AdR and PdR”; in experiment [4] (setting [13]), “SelFdR0978 was more efficient in DCIP reduction than both AdR and PdR”.

Turning to `Cc1cc2nc3c(=O)[nH]c(=O)nc-3n(C[C@H](O)[C@H](O)[C@H](O)COP(=O)(O)OP(=O)(O)OC[C@H]3O[C@@H](n4cnc5c(N)ncnc54)[C@H](O)[C@@H]3O)c2cc1C` [FAD], the “FAD released by guanidinium chloride, absorbance at 450 nm” value in experiment [5] was “extinction coefficients of the flavin-bound SelFdR0978”.

For the molecule `NC(=O)C1=CN([C@@H]2O[C@H](COP(=O)(O)OP(=O)(O)OC[C@H]3O[C@@H](n4cnc5c(N)ncnc54)[C@H](O)[C@@H]3O)[C@@H](O)[C@H]2O)C=CC1` [NADH], the “DCIP reduction, absorbance at 600 nm” value in experiment [2] (setting [14]) is “PdR preferred NADH to NADPH”.

For `NC(=O)C1=CN([C@@H]2O[C@H](COP(=O)(O)OP(=O)(O)OC[C@H]3O[C@@H](n4cnc5c(N)ncnc54)[C@H](OP(=O)(O)O)[C@@H]3O)[C@@H](O)[C@H]2O)C=CC1` [NADPH], the results for the “DCIP reduction, absorbance at 600 nm” value in experiment [3] (setting [14]) and in [4] (setting [14]) were “AdR only exhibited a slightly increased activity with NADPH than with NADH” and “SelFdR0978 showed a strong preference for NADPH over NADH”, respectively.

Consider `C/C1=C/C[C@@H](/C(C)=C/c2csc(C)n2)OC(=O)C[C@H](O)C(C)(C)C(=O)[C@H](C)[C@@H](O)[C@@H](C)CCC1` [epothilone D], for which the “conversion assay, reconstituted system” value in experiment [6] is reported as “EpoK catalyzes the epoxidation of C12-C13 double bond in epothilone D to form epothilone B”.

Consider “Bovine adrenodoxin Adx(4-108) (domain or fragment)”, for which the Km for the redoxin in cyt c reduction (NAD(P)H, 1 nM FdR, 0-40 uM Fdx, 30 uM cyt c) in experiment [7] stood at 14.6 µM. Further, the conversion rate of YC-17 by PikC (1 uM P450, 10 uM Fdx, 5 uM FdR), wild-type reference in experiment [8] is 16.5%; in [9], 63.8%; in experiment [10], 15.6%.

With “Fe2S2 ferredoxin SelFdx1499 from Synechococcus elongatus PCC 7942 (natural protein)”, the Km for the redoxin in cyt c reduction (NAD(P)H, 1 nM FdR, 0-40 uM Fdx, 30 uM cyt c) in experiment [11] was 14.2 µM. Also, the conversion rate of YC-17 by PikC (1 uM P450, 10 uM Fdx, 5 uM FdR), wild-type reference in [8] came out at 24.7%; in experiment [9] it was 30.1%; in experiment [10], 99.1%.

B1: Adx-M1 (domain or fragment)
chain: EDKITVHFINRDGETLTTKGKIGDALLDVVVQNNLDIDGFGACEGTLACSTCHLIFEQHIFEKLEAIADEEAAMLALAYGLTDRSRLGCQICLTKAMDNMTVRVP
B1: the conversion rate of YC-17 by PikC (1 uM P450, 10 uM Fdx, 5 uM FdR) in [10] was found to be 9.2%.

B2: Adx-M2 (domain or fragment)
chain: B1 chain with A25S, D38A, E44A, L47A, A68T, A72N, A73D
In the case of B2, in [9], the conversion rate of YC-17 by PikC (1 uM P450, 10 uM Fdx, 5 uM FdR) was determined as 67.8%.

B3: Adx-M3 (domain or fragment)
chain: B1 chain with A25S, D38A, G39A, A42L, A68T, A72N, A73D, A76D
Take B3: the conversion rate of YC-17 by PikC (1 uM P450, 10 uM Fdx, 5 uM FdR) in experiment [8] stood at 7.2%.

B4: putidaredoxin from Pseudomonas putida (natural protein)
chain: SKVVYVSHDGTRRELDVADGVSLMQAAVSNGIYDIVGDCGGSASCATCHVYVNEAFTDKVPAANEREIGMLECVTAELKPNSRLCCQIIMTPELDGIVVDVPDRQW
For the molecule B4, in experiment [12], the Km for the redoxin in cyt c reduction (NAD(P)H, 1 nM FdR, 0-40 uM Fdx, 30 uM cyt c) was 22.1 µM. Besides, the conversion rate of YC-17 by PikC (1 uM P450, 10 uM Fdx, 5 uM FdR), wild-type reference is 15.6% in experiment [8], 0% in experiment [9] and 0% in [10].
